The target of series [1] is T1, DNA polymerase iota catalytic core (UniProt Q9UNA4 26-443).
T1 sequence: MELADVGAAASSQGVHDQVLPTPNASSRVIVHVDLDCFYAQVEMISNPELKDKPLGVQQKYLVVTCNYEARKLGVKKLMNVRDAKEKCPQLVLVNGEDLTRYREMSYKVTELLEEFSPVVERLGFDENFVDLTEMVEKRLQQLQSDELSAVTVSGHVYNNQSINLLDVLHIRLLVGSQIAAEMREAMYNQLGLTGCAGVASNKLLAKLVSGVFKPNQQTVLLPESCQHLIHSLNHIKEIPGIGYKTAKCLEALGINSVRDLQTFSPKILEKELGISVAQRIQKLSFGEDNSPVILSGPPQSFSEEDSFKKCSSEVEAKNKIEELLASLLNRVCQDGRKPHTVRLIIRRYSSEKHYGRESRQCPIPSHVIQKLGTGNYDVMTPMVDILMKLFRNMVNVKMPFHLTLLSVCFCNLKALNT
As to the kind of experiment: X-ray crystallography.

Series [2] has as its target T1, DNA polymerase iota catalytic core. As to the kind of experiment: X-ray crystallography. The source holds these as a separate data set.
For series [3] the target is unchanged. Kind of series: X-ray crystallography. The source holds these as a separate data set.
For series [4] the target is unchanged. Kind of series: time-lapse X-ray crystallography.

B1: self-annealed 17-mer product DNA (post-translocation) (dsDNA)
DNA 1: TCAAGGGTCCGGACCCT
DNA 2: TCAAGGGTCCGGACCCT
On to B1, for which the binding result in series [1] was “binds”.

B2: self-annealed 19-mer product DNA (pre-translocation) (dsDNA)
DNA 1: TCAAGGGTCCTAGGACCCT
DNA 2: TCAAGGGTCCTAGGACCCT
As to B2, the binding result in series [2] was “binds”.

B3: self-annealed 18-mer substrate DNA, template A (dsDNA)
DNA 1: TCAAGGGTCCTAGGACCC
DNA 2: TCAAGGGTCCTAGGACCC
Take B3: the binding result in series [3] is on record as “binds”.

B4: product DNA formed in crystallo from 18-mer plus dTTP (dsDNA)
DNA 1: TCAAGGGTCCTAGGACCCT
DNA 2: TCAAGGGTCCTAGGACCCT
With B4, the binding result in series [4] is reported as “binds”.

For the origin of these results see PMC12214486.
